The source of these data is patent EP2970447B1 (Eli Lilly and Company, dated 2018).

Holding throughout (experiment): SPR (Biacore 2000), antibody captured on Protein A, chemokine in solution, 25°C
The target in one assay is T1, human ENA-78 (CXCL5) (human, UniProt P42830 41-114).
T1 construct: also called human CXCL5 (ENA-78)
T1 sequence: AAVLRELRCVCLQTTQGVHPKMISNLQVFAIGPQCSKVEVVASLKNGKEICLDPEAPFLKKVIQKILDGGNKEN

Another assay addresses T2, human Gro-gamma (CXCL3) (human, UniProt P19876 35-107).
T2 construct: also called human CXCL3 (Gro gamma)
T2 sequence: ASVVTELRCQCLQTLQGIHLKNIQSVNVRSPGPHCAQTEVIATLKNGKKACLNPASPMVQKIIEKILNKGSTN

The target of another assay is T3, human NAP-2 (CXCL7) (human, UniProt P02775 59-128).
T3 construct: also called human CXCL7 (NAP-2)
T3 sequence: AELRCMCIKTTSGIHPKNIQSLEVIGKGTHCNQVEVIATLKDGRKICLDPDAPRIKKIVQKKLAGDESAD

A further assay has as its target T4, human Gro-alpha (CXCL1) (human, UniProt P09341 35-107).
T4 construct: also called human CXCL1(Gro alpha)
T4 sequence: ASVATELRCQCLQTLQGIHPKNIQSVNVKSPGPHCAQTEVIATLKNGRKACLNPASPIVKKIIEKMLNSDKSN

The target of a further assay is T5, human GCP-2 (CXCL6) (human, UniProt P80162 40-114).
T5 construct: also called human CXCL6 (GCP-2)
T5 sequence: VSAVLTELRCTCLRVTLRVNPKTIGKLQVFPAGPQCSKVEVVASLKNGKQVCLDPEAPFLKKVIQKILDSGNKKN

The target of another assay is T6, human IL-8 (CXCL8) (human, UniProt P10145 28-99).
T6 construct: also called human CXCL8 (IL-8); wild type human CXCL8
T6 sequence: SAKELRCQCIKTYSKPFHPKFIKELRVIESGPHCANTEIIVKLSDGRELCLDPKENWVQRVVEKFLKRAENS

B1: Antibody 2 (antibody, human IgG4 S228P, kappa, V domains shown)
VH: QVQLVQSGAEVKKPGASVKVSCKASGYEFTSYWIHWVRQAPGQGLEWMGNISPNSGSANYNEKFKSRVTMTRDTSTSTVYMELSSLRSEDTAVYYCAREGPYSYYPSRQYYGSDLWGQGTLVTVSS
VL: EIVLTQSPATLSLSPGERATLSCRASQSISNNLHWYQQKPGQAPRLLIYYTSRSVSGIPARFSGSGSGTDFTLTISSLEPEDFAVYYCGQNNEWPEVFGGGTKVEIKR
notes: Full-length antibody expressed in NS0 cells
For orientation: koff means the rate constant with which the complex falls apart. A low value points to slow dissociation. For B1, the koff is 1.51e-05 s⁻¹ with human ENA-78 (CXCL5); 1.76e-05 s⁻¹ with human Gro-gamma (CXCL3); 2.18e-05 s⁻¹ with human NAP-2 (CXCL7); 1.53e-05 s⁻¹ in the assay with human Gro-alpha (CXCL1); 6.11e-05 s⁻¹ in the assay with human GCP-2 (CXCL6); 1.24e-05 s⁻¹ with human IL-8 (CXCL8).
